For the experiment, the target named is T1, GST-tagged VPS29C (Homo sapiens, UniProt Q9UBQ0).
T1 construct: made in house; host or cells: E. coli BL21 (DE3)
In words: Isothermal titration calorimetry (ITC) of peptides with GST-VPS29C. In kind it is binding. The following applies: 25 °C, single-site model. On the procedure: All the bacterial constructs were expressed in BL21 (DE3) competent cells using the standard autoinduction method as described previously. Cell cultures were harvested by centrifugation at 6,000 × g for 5 min at 4 °C and the cell pellets were then stored at −80 °C until cell lysis. To obtain individual Retromer subunit including VPS26A, GST-VPS29B, and GST-VPS29C, the frozen cell pellet was resuspended in protein buffer (50 mM Tris-HCl pH 7.5, 200 mM NaCl, 2 mM β-mercaptoethanol) supplemented with 50 μg/mL benzamidine, 100 units of DNase I. In all cases, the resuspended cells were lysed through a Constant System TS-series high pressure cell disruptor. The soluble homogenate cleared by centrifugation was loaded onto either Talon resin (Clontech) for His-tagged VPS26A or Glutathione Sepharose (GE Healthcare) for GST-tagged VPS29B/VPS29C. The fusion-tagged containing proteins eluted from the resin were then further purified using size exclusion chromatography (SEC) on a HiLoad® 16/600 Superdex 200 or Superdex 75 column equilibrated with protein buffer. For Retromer, the soluble homogenate was first loaded onto Talon resin (Clontech) followed by glutathione Sepharose (GE healthcare) to obtain the correct stoichiometry ratio of the Retromer complex. Removal of the GST tag from the constructs was performed using an on-column cleavage approach with PreScission protease. The fusion tag free protein was further purified using SEC on a HiLoad® 16/600 Superdex 200 column as described above. Protein integrity was validated using SDS-PAGE gel and concentration was measured using Nanodrop at OD280.
All microcalorimetry experiments were carried out at 25 °C using a PEAQ ITC (Malvern, UK) in protein buffer. […] In the macrocyclic peptide experiment, the equivalent percentage (v/v) of DMSO was added into the target protein to avoid buffer mismatch. All ITC experiments were performed with a single injection of 0.4 μL followed by a series of 12 injections of 3.2 μL each, spaced 180 s apart, and stirred at 750 rpm. To calculate the heat exchange of interactions, the observed peaks were integrated with the subtraction of heat of dilution from the background. The thermodynamic parameters including Kd, ΔH, ΔG, and −TΔS were obtained by fitting and normalizing the data to a single-site binding model using Malvern software package. The stoichiometry was adjusted initially, and if the value was near 1, N was set to exactly 1.0 for computation. To ensure the data were reproducible, each experiment was run at least twice.

Setting [1] is: 300 μM peptide into 10 μM GST-VPS29C.

In the case of “VPS35L 16-38: natural peptide of the amino-terminal region of VPS35L containing a Pro-Leu motif (EFASCRLEAVPLEFGDYHPLKPI)”, under setting [1], the “-TΔS” value came to 17.8 ± 8.54 kJ/mol, the ΔG is -22 ± 0.628 kJ/mol and the ΔH is -39.9 ± 10.5 kJ/mol.
For “VPS35L 28-37: natural peptide of the amino-terminal region of VPS35L containing a Pro-Leu motif (EFGDYHPLKP)”, the Kd entry (300 μM peptide titrated into 10 μM GST-VPS29C, protein buffer (50 mM Tris-HCl pH 7.5, 200 mM NaCl, 2 mM β-mercaptoethanol), each experiment run at least twice) is “No binding detected”.

For the origin of these results see publication PMC12260524, “Identification of a VPS29 isoform with restricted association to Retriever and Retromer accessory proteins through autoinhibition” (Proceedings of the National Academy of Sciences of the …, 2025).
